This experiment has as its target Caut-bCAstrepC (C-terminal STREPII-tagged β-class carbonic anhydrase of Clostridium autoethanogenum) (Clostridium autoethanogenum). The experiment is described as follows: AUC; sedimentation velocity, 50,000 rpm, 2-fold protein dilution series starting at 0.7 mg/ml, absorbance at 280 nm and interference optics; SEDFIT c(s) and non-interacting discrete species (NIDS) models.

Usually stoichiometry N stands for a count of units in the complex or per binding partner. On to “Caut-bCAstrepC (C-terminal STREPII-tagged β-class carbonic anhydrase of Clostridium autoethanogenum) (enzyme)”, for which the stoichiometry N was 2.

Source of the values: publication PMC6690855.
